Experimental findings from patent KR20200132110A (dated 2020) are described below.

In assay [1] the target is CD71 (on cancer stem cells and cancer cell lines) (UniProt P02786 1-760, limits assumed). As to the kind of experiment: cell-based or functional assay.
Assay [2] addresses T1, BSA (UniProt P02769 25-607).
T1 construct: Negative control
As to the kind of experiment: ELISA, 100 nM coated protein. For orientation: In an ELISA, binding on a coated surface is turned into a signal by an enzyme label.

Assay [3] concerns the target T2, CTLA-4 (UniProt P16410 36-161, limits assumed).
T2 construct: Negative control; The construct is not described
T2 sequence (looked up): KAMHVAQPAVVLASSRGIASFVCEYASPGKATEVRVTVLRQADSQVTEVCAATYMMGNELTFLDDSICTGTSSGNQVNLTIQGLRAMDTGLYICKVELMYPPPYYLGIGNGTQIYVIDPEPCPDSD
Description: ELISA, 100 nM coated protein.

CD71 (on cancer stem cells and cancer cell lines), sequence (P02786 whole entry): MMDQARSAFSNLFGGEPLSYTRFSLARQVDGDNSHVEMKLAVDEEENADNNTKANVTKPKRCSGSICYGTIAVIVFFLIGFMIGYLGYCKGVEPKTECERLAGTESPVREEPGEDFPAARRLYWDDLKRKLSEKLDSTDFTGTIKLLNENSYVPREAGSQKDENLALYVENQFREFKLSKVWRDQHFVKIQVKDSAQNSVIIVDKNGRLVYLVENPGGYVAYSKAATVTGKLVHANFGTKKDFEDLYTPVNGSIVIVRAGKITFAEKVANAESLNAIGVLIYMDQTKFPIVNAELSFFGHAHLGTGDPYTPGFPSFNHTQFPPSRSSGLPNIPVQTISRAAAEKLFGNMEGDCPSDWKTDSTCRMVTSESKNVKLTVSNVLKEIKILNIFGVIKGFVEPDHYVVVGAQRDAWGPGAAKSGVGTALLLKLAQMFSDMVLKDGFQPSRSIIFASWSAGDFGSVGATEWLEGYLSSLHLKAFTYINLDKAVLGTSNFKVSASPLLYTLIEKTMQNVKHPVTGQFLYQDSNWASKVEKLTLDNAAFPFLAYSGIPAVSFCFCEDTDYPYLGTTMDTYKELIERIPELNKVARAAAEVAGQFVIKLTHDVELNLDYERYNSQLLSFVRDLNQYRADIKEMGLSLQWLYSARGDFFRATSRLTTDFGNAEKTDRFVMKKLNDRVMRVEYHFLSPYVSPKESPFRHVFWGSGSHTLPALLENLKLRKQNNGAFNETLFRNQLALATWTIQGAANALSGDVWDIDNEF
T1 sequence (P02769 25-607 limits assumed): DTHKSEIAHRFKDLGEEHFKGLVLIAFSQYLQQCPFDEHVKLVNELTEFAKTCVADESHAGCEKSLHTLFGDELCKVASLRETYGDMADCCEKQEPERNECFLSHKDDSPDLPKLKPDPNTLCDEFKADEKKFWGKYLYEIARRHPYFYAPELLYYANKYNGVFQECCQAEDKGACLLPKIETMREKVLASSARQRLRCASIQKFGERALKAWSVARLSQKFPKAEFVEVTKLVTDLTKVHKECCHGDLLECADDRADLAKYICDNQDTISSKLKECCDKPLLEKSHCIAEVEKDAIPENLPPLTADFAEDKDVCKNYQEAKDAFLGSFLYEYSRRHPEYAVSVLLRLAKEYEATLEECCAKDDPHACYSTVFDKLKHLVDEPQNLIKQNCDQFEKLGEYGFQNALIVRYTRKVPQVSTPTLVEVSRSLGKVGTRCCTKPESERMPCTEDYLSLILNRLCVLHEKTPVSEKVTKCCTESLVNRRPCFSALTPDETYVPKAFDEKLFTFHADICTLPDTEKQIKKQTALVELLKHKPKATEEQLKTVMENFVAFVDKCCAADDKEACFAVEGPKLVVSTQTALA

B1: 1E12 항체 (antibody, V domains shown)
VH: QMQLVQSGAEVKKPGASVKVSCKASGYIFTDYYMHWVRQAPGQGLEWMGGISPIFGTANYAQNFQGRVTITADESTTTAYMELSNLRSEDTAVYYCAKDGAGPEYYYYGLDVWGQGTSVTVSS
VL: QSALTQPPSVSGSPGQSVTISCTGTSSDIGGYNYVSWYQHHPGKAPKLVISEVTKRPSGVPGRFSGSKSGNTASLTVSGLQAEDEADYYCSSYSDSDNLLFGGGTKLTVLG
notes: also called b) 단클론 항체
With B1, in assay [1], the “EC50 세포성장 저해, parent암 세포주 (AlamarBlue)” value worked out at 18.3 nM and the “EC50 세포성장 저해, 암 줄기세포주 (AlamarBlue)” value amounted to 53.3 nM. The binding result in assay [2] is given as “no binding (tested: 1μg/mL)”. Further, the binding result in assay [3] is on record as “no binding (tested: 1μg/mL)”.
